Results published in the DeepSol protein solubility set.

Assay: soluble on expression in E. coli; label from the status in PepcDB or PDB records

For “MAKRPTETERCIESLIAIFQKHAGRDGNNTKISKTEFLIFMNTELAAFTQNQKDPGVLDRMMKKLDLDSDGQLDFQEFLNLIGGLAIACHDSFIKSTQK”, which “soluble on expression in E. coli” value is on record?
Its value is “soluble”.

Which “soluble on expression in E. coli” value does the source give for “MRRKSVLYLEVADQIKEDILSGKYPVGTFLPTETELEELFNVSKITIRRAIEMLATEEFVEKKSGRGTTVLSNRPYNKLSKAGTFTEFLNESGQKVTKKVLQVENLTLSKEMPAYQFLGEEVVHLSRLYLIDEQPYIYFNYYLPAAMKDVSLTEYKEESLYRLMDRHAIEIYKFEDRFEVATLTEAEQKMLQTTETTGLKRIRRSLSPTGRCVEYSEAIYNTKIHPYVIEYEA” here?
The value was “not soluble”.

Which “soluble on expression in E. coli” value does the source give for “MKIGIFTDCYYPQINGVVTSTMNLQKELEKLNHEVYIITTTFPNFKDEDEKHIIRIPSIPFFKWSEFRIGLFLKHTKAYNKVKALNFDIVHTQTEFSMGNFGTFIAKDLNIPCIHTYHTVYEEYTHYISNFGKSPLKKVVRKLSKRYIAHFSGVIAPTEKTRDLLISYGVKNKIYVVPTGINLEKFKKDIPDAETNSLLKSFNIKKDSFKLIFLGRISKEKNIETLINIMPKIVSENNNIQLIIVGDGPDRLELEERVRYLDLQDNVIFTNRIPNDKVPIYYKAADLFISPSKTETQGLTILEAMAAGVPVLVYDDTNIKGLVLHKKTGLLFKENDELLDNIKFALNNKEEIQSYAKEAFKIAEDFSSANFAKKVERIYKELINQ” here?
Its value is “not soluble”.

For “MGSDKIHHHHHHMESYYAVLDAMAAAPGDGVFAIIIDVEGSAYQKEGTWMWIEASGKTTGLLSGGCFEEAVAAHALDVLSNRQATSISFDLRAEDDWSWGQGAGCNGLVRIWLEPVTSNTKPDWLALKRCLDRGEHVFMARSITDPREQPFFQSETGERFGGYSSPPRPEWLKELHGTPFFRGRNGVYETEEDTFFIQHFWPKPRLTIFGAGPDAPPLVSAAKAAGFSVTVSDWRPAFCQPSHVPDADAWVVGFPHETIPKLHLTERDFVVIMTHQFERDRELMRWLADIPLAYLGVLGPRRRTDRLFPSGTAPPFVRSPIGLPIGARSPHEIAISITAELINVLRGGPMETAR”, which “soluble on expression in E. coli” value is on record?
Its value is “not soluble”.

Which “soluble on expression in E. coli” value does the source give for “MGSDKIHHHHHHMIINKHVMRSTNEKQVLQQVINEGPISRSQISRNLSLNKVTVSDIYNQLLRTQFIKEIGCGVSTKNGGRKPVMAELNVNYGFVASIDMTADAVKLMYSRLNGKILHFQSFKTSDMTLTDVIDLIEDQLRNVDDYGTIHGLMGVAIALDGIIYENKILKTPIKGLTHFDLAKYLRDKLRIPVVLEKKANLTAVFERDFHDNEIFDNVVSVVVRDQIHAGIVADSRLYSGHEGEAGEVGTALLEDRHVEDHLASVNDYASEKALWARLKAIKHVERLDLTTVKHDYINHDPEVTKVFDDFVYYLSKVIANVSTAFAPDVVVLNTTVLEILPQLLTNVRESTAKLTSPSRQVPIIATKNVQSAALLGGASVIIHQALGLESLKMQFS” here?
The value was “not soluble”.

With “SLSMVLLRGRLLSFRRAPLSIDDTQSYLYIEDGGLLLENGRIAAIGEYADIRETAPEDVEEKDHRPHLIVPGLIDMHLHFPQMQVIGSYAANLLEWLNTYTFPEECRFVESAHAQRIATHFYDELLRHGTTTAAAYCSVHKTSADAFFTEAMKRNMLMIGGKVMMDRNAPQGLLDTPETSYDETRQVIADWHGRGRNHVAITPRFAITSTPKQMEAAQALAQEFPDLFIQTHLSENLDEIKYTCELYPEATDYTDIYVRYGLMGNKTLLGHAIHLSDREADVLSETGAVAVHCPTSNLFIGSGLFPMKKLQRREKPVRIAVATDIGGGSSYSMLRTMDEAYKIQQLLGERLNPLESWYLMTRGNAEALSMVDRIGTLEAGTDADITVLNASSTPAMALKMEVVKSLTEELFLMLTMGDDRTVVETYVAGRAMKSVLA” as the sequence, how does the “soluble on expression in E. coli” value read?
The value was “not soluble”.

Which “soluble on expression in E. coli” value does the source give for “MMDDILKQIKAGEVSGVQFKERILDKYDIACELVAFSNSHGGKLVVGIKDKTGETNALSYSEVQETTNLLSDIASENVVPSILIKIDTVEVEDGNLVVATVKEGLNKPYHDNKGIVWVKNGADKRKVFDNAELAEMMTDCGSFAPDEAGVRDATVNDLDATTIKQFLGNRFERVLDKKGLTGDAFNEASLDMICSAIAKGHDCEKILRNLRFIRPDGTLTVAAMLLFGKYTQRWMPMMTAKCICFAGNSVGSKVFRDKVNDADMEGNLLHQYDTIMDFFTRNLHNVQVGDEFNSMGKLEIPYTSLVEFTVNSLVHRSLNMKAPVRIFIFDNRVEIHSPGALPNGLTIDDIKAGTSMPRNTFLFNNAIYLLPYTGVGSGITRALDEDINVTFMNNDKAQEFVITVWRGESNQVEDLDTGLRHSDTDLDTGLRHSDTDLDTKRVTLTNKEKDIVNFCSVPRTTKEILDRIGVSMHSKNRERYITSLVAAGYLQMTNPDNPTASNQKYKKVNKRLEHHHHHH” here?
The value was “soluble”.

With “MVHDTFMKMPEVRRRRQPTHVLVAGGNQGLGNMTAFLRAARTSTLFRYSVLCGANKQLYHEIASWQLPHIRPLPYINSPEEMNQLYDEADAVITKPGGVTISELLHKRIPIFTIDCLPGQERINWQYLRRNGLIYHLAEPGNGERKMIRLLTDDVEKNRFFRRVSDYFAGVEKTGLEHHHHHH” as the sequence, how does the “soluble on expression in E. coli” value read?
The value was “not soluble”.

For “MYIVNSNKSRGSSVERYIVSRLRDKGFAVIRAPASGSKRKDHVPDIIALKSGVIILIEVKSRKNGQKIYIEKEQAEGIREFAKRSGGELFLGVKLPKMLRFIKFDMLRQTEGGNYAIDLETVEKGMELEDLVRYVESKISRTLDSFL”, which “soluble on expression in E. coli” value is on record?
Its value is “soluble”.

With “METKPSQGLYPLHRCKTIHLVRHAQGIHNVEGEKNHKAYLSEDLFDAHLTPLGWQQVDNLHKHVNASGISNRIELVVVSPLLRTLQTAVGTFGGEGYKDGVNTPLLMTAGAGNSDRPAISRLNRPPFIAVESCREHLGVHPCDRRSNITKYRELFPAIDFSLIETDEDVLWKPDIREEDKDIATRGVKFFNWLSTRKEKEIAVVTHSGFLYQTLNSFGNDCDPSVKNEISKKFVNCELRSFVLVDKCMSSSDPPMTNYPGTILTGEDASSDIADQK” as the sequence, how does the “soluble on expression in E. coli” value read?
Its value is “soluble”.

For “MQMESQRRDVFYVSDGTAITCETLGHVVLGQFAVQPNEKTFPFVESDEKLSELLKQIQRSYQLHGVKPLVFFSMVIPEMRTRLLQAPAHFYDVLESIVQRVSLDIEMEPAPKLQRSRSVGKDSDTYFDRIAAIEYTLAHDDGVSLKDLDRADIILLGVSRSGKTPTSLYMAMQFGLRVVNYPFIAEDMHAMRLLPEFEFHRHKLFGLTINAERLTEIRENRLAGSEYASNQQCQQELATVEALFRREAISYINTSSLSVEEISTRILERTGLKRRLF”, which “soluble on expression in E. coli” value is on record?
The value was “not soluble”.

For “MHFKTKLKNRRSEVNTCLCIGLDPDEDDIKNFMKNEEQNGYKNIKNNMNSNNNGIENIIKIGKEILLTDGENIQNLSEEDKFFYFFNHFCFYIINNTKEYALVYKMNFAFYIPYGSVGINALKNVFDYLNSMNIPTMLDMKINDIGNTVKNYRKFIFEYLKSDSCTINVYMGTNMLKDICFDYEKNKYYSAYVLIKTTNKDSFIFQNELSINDKQAYIVMADETQKMATELKIEQNNEFIGFVVGSNAFEEMKIIRNKFPDSYILSPGIGAQNGDLYKTLKNGYNKDYEKLLINVGRAITKSPDPKKSSESYYNQIIQIFKDIENGDNIEQV”, which “soluble on expression in E. coli” value is on record?
The value was “soluble”.

For “MSLKIAIVGCGAMGSVYAGLLASAGNSLWIVDRWKAHVEAINSRGLRLEGPQRDLTAFAHASTTAPDEPMDLVIIAVKASDVETGAQQTLSMIGPETIVLTIQNGLGSADAVAQVVGVDRLAVGIASGFGASLKGPGHAHHNAMQALRFGAYSSLPYERVVAVARVWESAGFDAKAIRDIAVMQWEKLICNVAYSAPCALTGMTVGEVMNDPCMGPVSQAAATEAWSVARALGIQIDVDDPVAHVRAFGARMPAAKPSALLDHEAGRISEIDVINGAVPTQGNKLGIATPVNSTLTQLVRVKERQFREGHHHHHH”, which “soluble on expression in E. coli” value is on record?
The value was “soluble”.

For “MGSDKIHHHHHHMKNFVLDTNVLLYDPQAIFKFEENNIIIPITVIEEVDRFKKDMNETGRNARQVSRYLDDMRKIGSLSSGITLETGGMLRVEMYEEKIMKRLPPELREERGDNRILAVAVKILEENGGAPVVFVTKDTNLRIKADAIGLKAEDYESDKVDIEELYPGFTEIDVAADTVDRFHGQGWVELPGQTFFPNQCVTLRDEANPSHTALGKYRVGDGKITPLIKTGKEGVWSIFPRNREQAFAFDLLLDDSIKLVTLVGKAGTGKTLLAIAAGLHKTAEENVFNRLLVSRPVFPMGRDLGFLPGDIEEKLAPWMQPIFDNVELLLSGHEAEKRHSKGYKELMAMGIMEIEPLTYIRGRSIPNQFMIVDEAQNLTPHEIKTIITRAGEGTKIVLTGDPYQIDNPYVDASSNGLTYVVERFKEQAIAGHVTMTKGERSDLAELAANLL”, which “soluble on expression in E. coli” value is on record?
Its value is “not soluble”.

For “MNLHICEVTAKNWRSVVALDVAKDQQQFIESNAFSLAESLYEGNGTSVGLYDSETLVGYAMYGWYSVKHKSVWLDRFMIDQQYQGKGYAKRFLRLLIQFLQEKFECKIIYLSLHPDNKLAMGLYESFGFRLNGDIDDEGPVVGVVMELLIDENTSL”, which “soluble on expression in E. coli” value is on record?
The value was “not soluble”.

Which “soluble on expression in E. coli” value does the source give for “MAKNRFVRDVRLIASTSGDPIDAGQNGELLKSLYYQIAVHCIVLPPLRERKEDILPLAIHFIRQGNERYGLHVEGLGDDVQEAFLAYSWPGNVRELEAVILETMATMEQEQTITLAHLPAPFRAKLAPDETKTDFLFDTEDILPLDKYMEEVEIYYIRKALQHHGFNITKTAKALGLSRQNLQYRIRKYQIDKEWG” here?
Its value is “not soluble”.

Which “soluble on expression in E. coli” value does the source give for “MSLKENNMDKAHIGFIGLGLMGAAMVECLQKAGHAVTVLGNRDRTGVEAALARGATEAAHARAVAEASDIVMLCMGTSAQVESRIYGDDGVLAGTREGQVVIDFGTSLPASTRRIGGDLAGKGATYLDAPLGRTPAHARDGLLNIMCSGDKATFDRVKPVLHTLGENVFHLGALGNGHTIKLINNCYSMTTACAMAEAFAIADATGIERQALYNVMAAGPNHSGMMDFINAYANGGRIDLAFTVANAAKDVGYYRQMATEMGLFSRMSIAADATLREARDGGDGGLMVPQMIDWMVRHLGEEGHHHHHH” here?
Its value is “soluble”.

For “MTMTTMPESLNSPVSGKAVFMEFGPPNQQMSPSPMSHGHYSMHCLHSAGHSQPDGAYSSASSFSRPLGYPYVNSVSSHASSPYISSVQSYPGSASLAQSRLEDPGQDLVPKQAIQVQEADEAGWGGSGG”, which “soluble on expression in E. coli” value is on record?
The value was “soluble”.

For “LKSSRFHEKILCDIGGVPMFVATARRVSSVDEVCIALDDEKVLSIAKEYGLNAVLTSKDHESGTDRINEACKKLALKDDEIIINVQADEPFIECENLLKFKEFASFCLDKKAFMASCYKKITQEEAMDPNLVKVLCDKEGYALYFSRAKIPYERENYEESFKGHLGIYAYSVKALREFCSLSSSALERAEKLEQLRAIENGKKIKMLEISTTSMGIDTKEDYERALKIYLEK”, which “soluble on expression in E. coli” value is on record?
The value was “not soluble”.

With “MLLKLKCTVNNYAWGPKGNSSMAGSLALDGGHIPNLDKDKPYAEFWVGTHANGPAHVIEKDIALKQLLATSPELQGKHEKGNLSFLFKVLSVLGPLSIQIHPTKEQGKLLHATDPKNYPDDNHKPEIAIALTEFELLSGFRQHSQISEYLKLYSEIQELLTEEEKSQIDSLGSYGESSAQVLKKIFSRIWRTPKEKLQIVVDKLARRIQGHENKTALDEIIVYLFTLYPGDVGVFAPIFLNYFKLQPGEATFLEPNMPHAYLKGDCVECMADSDNTIRAGLTPKYIDVESLVEMLNYDETLLPKYIPNELDDGSLLFTPRGIDEFWVQEVKGPAGSIYQLPYSESCSVLTVLYGTATVTLGDASQVLNRGEVVFIGATHDAERPKINISDDFLAFRAFTPSPRALESLSNKRLIID” as the sequence, how does the “soluble on expression in E. coli” value read?
The value was “not soluble”.

With “MPNPRRIVFGDVHGHFDALTALFEAIAPNERDGVYFVGDLIDRGPESAKVVDFVMENKYHCLLGNHEQMMLDAVGGFNFSPQLLHAWIYSGGKSTLESYEHQIPQSHVDWMRNLPLYLDLGDVWLVHAGVDPRLPIEEQGEAQFCWIRDEFHRYPYPYFANKLIITGHTITFTFANVEPGKLVSGPGWLDIDTGAYHPKSGWLTALELNNQEVYQAHIFTNEVRRLPLEDAVVPLPPQNLHRLEHHHHHH” as the sequence, how does the “soluble on expression in E. coli” value read?
Its value is “not soluble”.
